Bridge positions count the residues as written; N and C are the ends. Peptide text beside a SMILES is read from it.

Broadly, the Kd is the constant that tells how readily two partners part at equilibrium. Higher therefore signals lower affinity. One may read the Ki as the dissociation constant of the complex between target and ligand, obtained from inhibition or displacement. A lower Ki goes with a stronger hold on the target.

The target in data set [1] is T1, GC-C (Ugn receptor) in T84 cell membranes (Homo sapiens, UniProt P25092).
T1 construct: plasma membranes derived from the T84 cell line, which abundantly expresses GC‐C; endogenous in cells; host or cells: T84 cell membranes
T1 sequence (P25092 24-1073): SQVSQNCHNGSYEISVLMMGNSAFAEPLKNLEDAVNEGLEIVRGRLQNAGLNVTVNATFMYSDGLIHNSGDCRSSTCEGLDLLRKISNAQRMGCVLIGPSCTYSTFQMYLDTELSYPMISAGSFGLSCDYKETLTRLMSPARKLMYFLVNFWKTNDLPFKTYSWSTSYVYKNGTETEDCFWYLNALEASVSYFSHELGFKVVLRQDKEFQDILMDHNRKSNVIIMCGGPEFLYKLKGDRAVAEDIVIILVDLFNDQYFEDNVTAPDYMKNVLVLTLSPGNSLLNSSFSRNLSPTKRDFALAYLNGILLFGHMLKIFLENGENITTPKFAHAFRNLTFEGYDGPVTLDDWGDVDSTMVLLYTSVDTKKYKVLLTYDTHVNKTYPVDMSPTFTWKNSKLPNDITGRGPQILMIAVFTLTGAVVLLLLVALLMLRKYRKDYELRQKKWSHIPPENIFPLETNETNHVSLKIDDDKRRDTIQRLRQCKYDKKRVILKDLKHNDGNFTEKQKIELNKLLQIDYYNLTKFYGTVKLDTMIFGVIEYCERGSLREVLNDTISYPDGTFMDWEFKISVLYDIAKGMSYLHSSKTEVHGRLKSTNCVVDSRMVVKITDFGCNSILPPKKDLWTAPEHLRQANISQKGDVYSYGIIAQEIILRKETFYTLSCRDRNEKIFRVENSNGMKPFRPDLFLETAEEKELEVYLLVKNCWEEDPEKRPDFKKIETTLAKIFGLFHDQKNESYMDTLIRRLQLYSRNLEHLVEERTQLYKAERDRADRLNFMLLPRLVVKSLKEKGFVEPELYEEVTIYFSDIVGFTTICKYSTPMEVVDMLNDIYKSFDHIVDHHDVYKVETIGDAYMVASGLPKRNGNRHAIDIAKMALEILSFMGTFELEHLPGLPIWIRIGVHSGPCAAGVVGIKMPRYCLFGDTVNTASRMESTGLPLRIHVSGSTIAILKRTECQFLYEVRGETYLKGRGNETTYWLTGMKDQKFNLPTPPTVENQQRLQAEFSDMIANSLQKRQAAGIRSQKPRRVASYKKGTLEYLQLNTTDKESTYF
Put plainly: Competitive Ugn binding assay (125I-Y-Ugn, T84 cell membranes). The following applies: pH 4.5, 1 h at 25°C; for Ki: displacement of 1 nmol/L 125I-Y-Ugn, T84 cell membranes, triplicate, rat Ugn n = 8 (R2 0.9985), rat Gn n = 3 (R2 0.9587), rat proUgn n = 3 (R2 0.9677). On the procedure:
Urine samples were first dialyzed against deionized H2O, using SpectraPor® 500‐M.W. cutoff dialysis membrane (Spectrum Laboratories Inc., Rancho Domingo, CA), then dried (Savant SpeedVac, Thermo Electron Corporation, Waltham, MA) and re‐dissolved in 100 μL of assay buffer [1 nmol/L ^125I‐Y‐Ugn in NaHCO3–free HBSS supplemented with 20 mmol/L sodium citrate and 0.75% bovine serum albumin (Sigma, St. Louis, Mo, USA)]. The pH was individually adjusted to 4.5 with NaOH or HCl using a miniaturized glass microelectrode (Microelectrodes Inc., Bedford, NH). Prepared samples were incubated in triplicate for 1 h at 25°C in polypropylene tubes with 20 μL of T84 cell membranes (10–20 μg protein). Samples were then diluted in 1 mL of ice‐cold rinse buffer, rapidly filtered through Whatman GF/C glass microfiber filters presoaked in distilled water, and quickly rinsed twice with 5 mL of ice‐cold rinse buffer (50 mmol/L Tris‐HCl at pH 7.0). Bound radioligand (retained by the filter) was quantified with a gamma counter (Packard Cobra, PerkinElmer Life and Analytical Sciences Inc., Waltham, MA). Ugn concentrations in sample solutions were calculated by interpolation in a standard curve obtained from a dilution series of synthetic rat Ugn incubated and analyzed in parallel with the unknowns. Non‐specific binding was determined by including 10^−5 mol/L unlabeled Y‐Ugn in place of Ugn standards or unknowns.
All data were plotted as mean ± SEM (or, in the case of n = 2, as mean ± range). Paired t‐tests were used for comparison of Ugn excretion, water consumption, and food consumption. GraphPad Prism 5.0 (LaJolla, CA) was used for analysis of binding data, with formulas derived from the Cheng‐Prusoff equation: cpm bound = NSB + [(B max − NSB)/1 + 10∧[log10(competitor concentration) − log10(IC50)]}], where NSB = nonspecific binding (in the presence of saturating competitor) and B max = maximal binding (in the absence of competitor). […]
Because GC‐C, the Ugn receptor (Schulz et al. 1990), is activated at the apical membranes of the cells that form the renal tubules (White et al. 1989; Hodson et al. 2006; Santos‐Neto et al. 2006), we can evaluate renal Ugn signaling (the presence of Ugn within the tubule lumen) by measuring the rate at which Ugn is excreted in urine (UUgnV). However, the conventional Ugn bioassay, which measures levels of the peptide by quantifying its stimulatory effect on ligand‐activated cGMP synthesis (Carrithers et al. 1999, 2000a), is compromised by high levels of cGMP that are naturally present in urine. […]
It can quantify Ugn in the picomolar range (Fig. 2A, black circles), allowing us to perform triplicate measurements of Ugn in rat urine samples as small as 20 μL. […]

The nature of data set [2]: Tissue (vascular) ligation studies, plasma proUgn. The data set is classed as in vivo, rat. On the procedure:
Rats were anesthetized (sodium pentobarbital, 60 mg/kg, ip) and prepared for clearance experiments as previously described (Moss et al. 2010). They received an initial infusion of isotonic saline (6% of body weight), followed by an infusion of 10% mannitol in 0.9% saline at 100 μL/min containing FITC‐labeled inulin (400 μg/mL, Sigma Chemical Co. St Louis, MO). For renal ligations, 5.0 silk thread ligatures were placed loosely around right and left renal arteries, and tightened after baseline data had been collected. For intestinal ligations, the bowels were exteriorized and wrapped in saline‐soaked gauze. […] Blood was sampled every 40 min from the femoral artery.
ProUgn concentrations in plasma and tissues were measured by quantitative western blotting, as described previously (Moss et al. 2008). Samples were loaded on 4–12% polyacrylamide gels (Invitrogen Corp., Carlsbad, CA), and a standard curve was constructed with known amounts of recombinant rat proUgn (Ironwood Pharmaceuticals, Cambridge, MA). Gels were blotted to nitrocellulose and probed with primary antibody 6910 (Moss et al. 2008; Qian et al. 2008) and an IR dye‐coupled secondary antibody. Imaging and quantification were performed with an Odyssey System (LI‐COR Biosciences, Lincoln, NE). Values were corrected for recovery, as determined in parallel control assays with known amounts of recombinant rat proUgn.
Previous surveys have identified only two organs (intestine and kidney) that contain levels of proUgn polypeptide sufficient to generate the relatively large circulating pool of proUgn (Moss et al. 2008; Qian et al. 2008). To determine the extent to which each of these organs contributes to the plasma pool, we ligated either the splanchnic or the renal blood supply, and measured the effects of each ligation on circulating proUgn levels. […] For the renal ligations, we also infused each animal with inulin (a reference standard used to assess glomerular filtration rates), and measured plasma inulin at each time point (Fig. 5A, left panel, white symbols). […]

The conditions of data set [3]: intravascular infusion, rodents; ref none printed in abstract; cited from earlier work. The text has this: Abstract The peptide uroguanylin (Ugn) is expressed at significant levels only in intestine and kidney, and is stored in both tissues primarily (perhaps exclusively) as intact prouroguanylin (proUgn). […] In conjunction with previous studies, this observation critically strengthens the contention that Ugn is an authentic endocrine agent as follows: (1) Ablation of the Ugn gene leads to hypertension (Lorenz et al. 2003; Elitsur et al. 2006), an appropriate phenotype for an animal that lacks an endocrine mechanism involved in electrolyte homeostasis.

The conditions of data set [4]: cited from earlier work. The text has this:
To investigate this in a statistically reliable manner, we obtained single plasma samples from a larger number of individual animals at a specific time of day (3 AM) under each dietary condition. […] Recent speculation has focused on proUgn, rather than Ugn, as the endocrine mediator of this putative signaling axis, because (1) proUgn is by far the most abundant molecular species stored in tissues and circulating in plasma (Moss et al. 2008), and (2) when isotopically labeled recombinant p ...

In data set [1] (T84 cell membranes (10–20 μg protein), filtration, gamma counter, R2 0.9659, n = 3), “^125I‐Y‐Ugn: N‐tyrosyl rat Ugn (Y‐Ugn, Bachem Inc.) iodinated as previously described; radioligand (YTDECELCINVACTGC; 125I-iodinated on the added N-terminal Tyr; two disulfides (Cys1-Cys3 and Cys2-Cys4 of the uroguanylin peptide, by convention); The 15-residue C-terminal peptide limits are by convention; check residu)” registered a Kd of 1.5 nM.
Regarding `CC[C@H](C)[C@@H]1NC(=O)[C@@H]2CSSC[C@@H](C(=O)O)NC(=O)CNC(=O)[C@H]([C@@H](C)O)NC(=O)[C@H](CSSC[C@H](NC(=O)[C@H](CCC(=O)O)NC(=O)[C@H](CC(=O)O)NC(=O)[C@@H](N)[C@@H](C)O)C(=O)N[C@@H](CCC(=O)O)C(=O)N[C@@H](CC(C)C)C(=O)N2)NC(=O)[C@H](C)NC(=O)[C@H](C(C)C)NC(=O)[C@H](CC(N)=O)NC1=O` [Ugn, uroguanylin] (H-TDECELCINVACTGC-OH; disulfide 4-12, 7-15), the Ki in data set [1] was determined as 1.04 nM.
As for `CC[C@H](C)[C@@H]1NC(=O)[C@H](CCC(=O)O)NC(=O)[C@@H](NC(=O)[C@@H](NC(=O)[C@H](CC(N)=O)NC(=O)[C@@H]2CCCN2)[C@@H](C)O)CSSC[C@@H]2NC(=O)[C@H](C)NC(=O)[C@H](C)NC(=O)[C@H](Cc3ccc(O)cc3)NC(=O)[C@H](C)NC(=O)[C@H](CSSC[C@@H](C(=O)O)NC(=O)CNC(=O)[C@H]([C@@H](C)O)NC2=O)NC1=O` [Gn, guanylin] (H-PNTCEICAYAACTGC-OH; disulfide 4-12, 7-15), the affinity in data set [1], expressed as Ki, was 170 nM.

B1: prouroguanylin (protein, UniProt P70668 22-106, looked up)
pro-form: VYIKYHGFQVQLESVKKLNELEEKQMSDPQQQKSGLLPDVCYNPALPLDLQPVCASQEAASTFKALRTIATDECELCINVACTGC
modifications: pro-form
notes: Recombinant rat proUgn, Ironwood Pharmaceuticals; also endogenous propeptide in plasma
As to B1, in data set [2] (endogenous, anesthetized rats, renal artery ligation), the “Plasma proUgn after renal artery ligation” value was “rose rapidly”. For the same molecule, the “Plasma proUgn after splanchnic ligation” value in data set [2] (endogenous, anesthetized rats, splanchnic ligation) is recorded as “fell to barely detectable levels”. Besides, in data set [2] (renal artery ligation, FITC-inulin infused, percentage basis), the “Postligation rate of rise of plasma proUgn relative to inulin” value is given as “nearly identical to that of inulin”. Also, the Ki in data set [1] was 8900 nM. In addition, the Natriuretic response entry in data set [3] is “natriuretic responses in rodents”. Also, the “Time for appearance of nearly all recovered Ugn in urine after proUgn” value in data set [4] (intravascular bolus of exogenous proUgn, ref Moss et al. 2010) is 30 to 60 min. In addition, in data set [4] (isotopically labeled recombinant proUgn infused intravascularly, ref Qian et al. 2008), the “Renal filtration and conversion” value is “readily filtered from plasma by the kidney, and converted within the kidney to Ugn”.

(Values after paper PMC4873633, “Dietary salt regulates uroguanylin expression and signaling activity in the kidney, but not in the intestine” (Physiological Reports, 2016).)
